From patent publication US20240010696A1

Target: human IL-12 receptor on cells (human) (UniProt P42701)
Assay: cell-based or functional assay

Chain of human IL-12 receptor on cells (human) (Q99665 24-862, chain 2 of 2, other chains not shown): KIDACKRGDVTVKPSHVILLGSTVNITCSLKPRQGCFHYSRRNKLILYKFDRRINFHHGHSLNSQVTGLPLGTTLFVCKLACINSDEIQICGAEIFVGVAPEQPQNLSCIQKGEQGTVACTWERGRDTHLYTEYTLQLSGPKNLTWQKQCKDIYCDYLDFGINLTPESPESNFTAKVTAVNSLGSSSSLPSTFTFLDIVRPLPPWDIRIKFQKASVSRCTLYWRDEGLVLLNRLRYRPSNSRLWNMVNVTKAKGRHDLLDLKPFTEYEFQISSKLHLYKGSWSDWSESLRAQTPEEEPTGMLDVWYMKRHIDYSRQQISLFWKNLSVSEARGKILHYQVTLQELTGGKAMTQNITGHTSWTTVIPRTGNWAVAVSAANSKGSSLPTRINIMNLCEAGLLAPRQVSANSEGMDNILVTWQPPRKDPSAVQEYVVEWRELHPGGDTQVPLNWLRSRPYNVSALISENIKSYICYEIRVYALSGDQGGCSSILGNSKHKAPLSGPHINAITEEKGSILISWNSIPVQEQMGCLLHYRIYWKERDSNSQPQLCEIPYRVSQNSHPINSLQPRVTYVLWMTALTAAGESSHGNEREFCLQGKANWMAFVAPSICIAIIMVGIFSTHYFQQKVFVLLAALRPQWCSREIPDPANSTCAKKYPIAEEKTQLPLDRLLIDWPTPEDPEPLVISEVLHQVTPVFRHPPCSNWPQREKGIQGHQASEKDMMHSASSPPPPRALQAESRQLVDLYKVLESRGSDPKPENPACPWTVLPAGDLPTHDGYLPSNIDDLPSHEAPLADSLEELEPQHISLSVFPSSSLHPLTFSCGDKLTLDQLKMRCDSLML

EC50 (ug/ml) hIL12R+ PD1+ cells (pSTAT4 reporter cell line, PD1-positive): 0.03 µg/ml
EC50 (ug/ml) hIL12R+ cells (pSTAT4 reporter cell line, PD1-negative): 0.1 µg/ml
Substance: WT IL-12 (row of Table 10)
